Earlier results on one substance are cited in publication PMC9190259.

By Kd is commonly meant the equilibrium constant for the complex coming apart.

The series addresses TNFα (Homo sapiens) (UniProt P01375).
Sequence of UniProt P01375 (P01375 77-233): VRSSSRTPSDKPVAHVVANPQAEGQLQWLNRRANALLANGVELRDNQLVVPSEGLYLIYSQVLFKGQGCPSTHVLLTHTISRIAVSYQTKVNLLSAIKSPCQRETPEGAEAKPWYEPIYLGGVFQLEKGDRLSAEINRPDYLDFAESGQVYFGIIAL

Consider Certolizumab Fab, for which the Kd is 0.09 nM.
